Assay results reported in article PMC12502779.

Biological target: T1, 6xHis-OxyR (Salmonella enterica serovar Typhi ISP1820) (UniProt Q8XF66)
T1 sequence: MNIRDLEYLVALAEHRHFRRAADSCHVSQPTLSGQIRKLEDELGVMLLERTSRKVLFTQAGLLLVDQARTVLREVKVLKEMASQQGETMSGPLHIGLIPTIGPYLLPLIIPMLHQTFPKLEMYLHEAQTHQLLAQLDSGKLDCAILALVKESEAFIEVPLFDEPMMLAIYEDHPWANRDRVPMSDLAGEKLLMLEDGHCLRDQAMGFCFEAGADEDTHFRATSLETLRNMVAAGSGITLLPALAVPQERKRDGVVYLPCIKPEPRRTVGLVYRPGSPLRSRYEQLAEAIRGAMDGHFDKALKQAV
Assay: EMSA
Settings: EMSA with 10 nM probe, 5% acrylamide gel, RedSafe stain; buffer, salt, pH and temperature not given (as previously described, ref 27)

## GAAATCGGGCGTGGCATTCTGATTACTCAACAGTAATTCACGAACCCTTTTCTCGATCTCTTTCGCTGTCGCCGGGTTCTCTTTCAGCCAGGTAGTCGCGTTCGCTTTACCCTGGCCAATCTTCT (double strand) [recA]
  binding: no binding
